{
  "source": "paper PMC3173369",
  "about": "“Mitochondrial Inhibitory Factor 1 (IF1) Is Present in Human Serum and Is Positively Correlated with HDL-Cholesterol” (PLoS ONE, 2011)",
  "proteins": {"B1": {"name": "Recombinant human IF1 (mitochondrial Inhibitory Factor 1) (natural protein, UniProt Q9UII2-1 26-106, looked up)", "chain": "GSDQSENVDRGAGSIREAGGAFGKREQAEEERYFRAQSREQLAALKKHHEEEIVHHKKEIERLQKEIERHKQKIKMLKHDD", "notes": "mature peptide without the mitochondrial targeting signal, amplified from HeLa cell cDNA; Cloned at BamHI/HindIII into pBEn-SBP-SET1-Qa (Stratagene); also called rIF1; recombinant IF1"}},
  "target": "the molecule itself",
  "experiment": "SDS-PAGE and Western blot after immunoprecipitation; 2 µg purified rIF1 immunoprecipitated with anti-IF1 antibodies cross-linked on protein A/G resin, eluted in 0.2 M glycine pH 2.8, boiled in Laemmli buffer with SDS and DTT, 15% SDS-PAGE, blot with anti-IF1; bands at the size of monomer and dimer",
  "data": [
    {"protein": "B1", "values": [
      {"measurement": "stoichiometry N", "result": 2}
    ]}
  ]
}
